Molecular target: the molecule itself
Assay: pair correlation of molecular brightness (pCOMB); pair correlation of brightness fluctuations along a 64-pixel confocal line scan from cytoplasm to nucleus of live HeLa cells; amplitude calibrated against free GFP, YFP or mCherry; cells stimulated with 10 nM oncostatin M for 15 min

B1: STAT3-DB-GFP (natural protein, UniProt P40763 1-770, looked up)
chain: MAQWNQLQQLDTRYLEQLHQLYSDSFPMELRQFLAPWIESQDWAYAASKESHATLVFHNLLGEIDQQYSRFLQESNVLYQHNLRRIKQFLQSRYLEKPMEIARIVARCLWEESRLLQTAATAAQQGGQANHPTAAVVTEKQQMLEQHLQDVRKRVQDLEQKMKVVENLQDDFDFNYKTLKSQGDMQDLNGNNQSVTRQKMQQLEQMLTALDQMRRSIVSELAGLLSAMEYVQKTLTDEELADWKRRQQIACIGGPPNICLDRLENWITSLAESQLQTRQQIKKLEELQQKVSYKGDPIVQHRPMLEERIVELFRNLMKSAFVVERQPCMPMHPDRPLVIKTGVQFTTKVRLLVKFPELNYQLKIKVCIDKDSGDVAALRGSRKFNILGTNTKVMNMEESNNGSLSAEFKHLTLREQRCGNGGRANCDASLIVTAALHLITFETEVYHQGLKIDLETHSLPVVVISNICQMPNAWASILWYNMLTNNPKNVNFFTKPPIGTWDQVAEVLSWQFSSTTKRGLSIEQLTTLAEKLLGPGVNYSGCQITWAKFCKENMAGKGFSFWVWLDNIIDLVKKYILALWNEGYIMGFISKERERAILSTKPPGTFLLRFSESSKEGGVTFTWVEKDISGKTQIQSVEPYTKQQLNNMSFAEIIMGYKIMDATNILVSPLVYLYPDIPKEEAFGKYCRPESQEHPEADPGSAAPYLKTKFICVTPTTCSNTIDLPMSPRTLDSLMQFGNNGEGAEPSAGGQFESLTFDMELTSECATSPM
notes: cloned by Ivan Ng in the laboratory of Marie Bogoyevitch and David Jans; source: HeLa cells, transiently transfected, in live cells
- stoichiometry N: 2
